Measurements from US20250333531A1 (NORDIC NANOVECTOR ASA, published 2025).
Substitutions are numbered along the chain they refer to. In names and notes the source's numbering stands.

B1: NNV023 (antibody, human IgG1)
heavy: not shown
light: DIQMTQSPSSLSASVGDRVTITCKASQDVSTAVDWYQQKPGKSPKLLINWASTRHTGVPSRFSGSGSGTDYTLTISSLQPEDFATYYCRQHYSTPFTFGQGTKLEIKRTDAAPSVFIFPPSDEQLKSGTASVVCLLNNFYPREAKVQWKVDNALQSGNSQESVTEQDSKDSTYSLSSTLTLSKADYEKHKVYACEVTHQGLSSPVTKSFNRGEC
notes: Humanized IgG1 kappa, fucosylated; also called AH02871HC + AH02877LC + V110D; AH02871HC_2877LC-110D
B2: NNV003 (antibody, human IgG1, kappa)
heavy: not shown
light: DIVMTQSHKLLSTSVGDRVSITCKASQDVSTAVDWYQQKPGQSPKLLINWASTRHTGVPDRFTGSGSGTDYTLTISSMQAEDLALYYCRQHYSTPFTFGSGTKLEIKRTVAAPSVFIFPPSDEQLKSGTASVVCLLNNFYPREAKVQWKVDNALQSGNSQESVTEQDSKDSTYSLSSTLTLSKADYEKHKVYACEVTHQGLSSPVTKSFNRGEC
notes: Mouse/human IgG1 kappa chimera of lilotomab; also called chHH1; chimeric HH1

How the values were obtained:
human CD37 [1] = molecular target: T1, human CD37 (human, UniProt P11049 1-281); test: competitive radioligand binding on Ramos cells; ratio to Ki of NNV009 (assumed 2.3)
T1 construct: whole, on cells; also called CD37 antigen
T1 sequence (looked up): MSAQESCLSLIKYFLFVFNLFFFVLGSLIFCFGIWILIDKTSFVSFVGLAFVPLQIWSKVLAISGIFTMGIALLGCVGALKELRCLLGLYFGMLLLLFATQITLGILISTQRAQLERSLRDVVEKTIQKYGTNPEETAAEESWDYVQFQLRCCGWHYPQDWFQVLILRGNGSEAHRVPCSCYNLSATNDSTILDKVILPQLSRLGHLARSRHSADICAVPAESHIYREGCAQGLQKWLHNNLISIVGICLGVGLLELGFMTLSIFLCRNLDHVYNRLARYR
Description: (§1) The Eppendorf LoBind tubes 1.5 mL were used to prepare dilutions (working concentrations) of Abs. As much as 0.2 mL of the cell suspension (800 000 cells/tube), after it has been cooled down for 30 min on ice, was aliquoted to glass 12×75 mm counting tubes. Each tube was pre-labeled with a code specifically determining each sample. The tubes with cells were maintained on ice for whole time course of the experiment except for the time when counted on the gamma counter. The tubes were agitated on a planetary shaker at 350 RPM, 4° C. (on ice) for 15 min. […] The tubes were placed on the planetary shaker (GL 064), on ice, and shaken for 4 hours at 350 RPM. After 3.5 hours past from the beginning of incubation, the samples were assayed on Wizard2 gamma counter using protocol “Lu-177 General” (all detectors except for the detector #3 were used). Upon completion the counting, the cells were washed with ice-cold 0.5 mL 0.5% BSAPBS three times. All the tubes were assayed on the Wizard2 gamma counter again using the same sequence and parameters as before the washing.

[2] = molecular target: FcγRIIIa-V158 on Promega Jurkat effector cells (UniProt P08637 17-254, limits assumed); test: cell-based or functional assay
human CD37 [3] = molecular target: T1, human CD37; test: competitive radioligand binding on Ramos cells against 177Lu-NNV009 (2.7 nM), gamma counting
Description: as §1

human CD37 [4] = molecular target: T1, human CD37; test: competitive radioligand binding on Ramos cells; lower end tied by Table 18 to AH02871HC + AH02877LC + V110D
[5] = molecular target: T2, biotinylated soluble human FcRn (human, UniProt P55899 24-297; P61769 21-119, biotinylated); test: ELISA: IgG coated at 1000-0.45 ng/ml, biotinylated soluble human FcRn 250 ng/ml pre-complexed with AP-streptavidin, pH 6.0, absorbance 405 nm
T2 construct: extracellular domain; Bought; Beta-2-microglobulin is not mentioned; Used as preformed complex with AP-streptavidin
Description: (§2) Remaining surface area were blocked with PBS containing 0.05% T and 4% S for 1 h at RT. The plates were washed four times with PBS/T using a Hydrospeed™ plate washer (Tecan). […] Following washing as above with PBS/T or FcRn binding buffer (67 nM phosphate, 0.1 M NaCl, 0.05% T, pH 6.0), bound receptor was visualized by addition of phosphatase substrate (1 mg/ml in diethanolamine buffer) (Sigma Aldrich). The plates were developed for 20-30 min before the 405 nm absorption values were recorded using a TECAN Sunrise spectrophotometer (Tecan).

[6] = molecular target: T3, human complement factor C1q (human, UniProt P02745 23-245; P02746 28-253; P02747 29-245); test: repeat ELISA: IgG coated at 20000-156.25 ng/ml, human C1q 360 ng/ml, detected with rabbit anti-human C1q and HRP anti-rabbit IgG (y axis printed as Absorbance 405 nm)
T3 construct: Bought
Description: (§3) Remaining surface area were blocked with PBS containing 0.05% T and 4% S for 1 h at RT. The plates were then washed four times with PBS/T using a Hydrospeed™ plate washer (Tecan). Human C1q (Complement Technologies) diluted to 360 ng/ml in veronal buffer (Complement Technologies) were added and incubated for 30 min at 37° C. Detection of bound C1q was performed using a primary anti-human C1q antibody from rabbit (DAKO) diluted 1:10.000 in PBS/T/S and a secondary horseradish peroxidase (HRP) conjugated anti-rabbit IgG antibody diluted 1:5000 in PBS/T/S (GE Healthcare). Binding was visualized by addition of 100 μl TMB substrate (Calbiochem) for 15-20 min before the enzymatic reaction was stopped by addition of 50 μl 1 M HC1. The 450 nm absorption values were recorded using a Sunrise TECAN spectrophotometer (Tecan).

[7] = molecular target: T3, human complement factor C1q; test: ELISA: IgG coated at 20000-156.25 ng/ml, human C1q 360 ng/ml, detected with rabbit anti-human C1q and HRP anti-rabbit IgG (y axis printed as Absorbance 405 nm)
Description: as §3

[8] = molecular target: T4, biotinylated truncated soluble human FcγRIIb (human, UniProt P31994 43-217, biotinylated); test: ELISA: IgG coated at 10000-4.5 ng/ml, biotinylated truncated soluble human FcγRIIb 250 ng/ml pre-complexed with AP-streptavidin, absorbance 405 nm
T4 construct: extracellular domain; Bought
T4 sequence (looked up): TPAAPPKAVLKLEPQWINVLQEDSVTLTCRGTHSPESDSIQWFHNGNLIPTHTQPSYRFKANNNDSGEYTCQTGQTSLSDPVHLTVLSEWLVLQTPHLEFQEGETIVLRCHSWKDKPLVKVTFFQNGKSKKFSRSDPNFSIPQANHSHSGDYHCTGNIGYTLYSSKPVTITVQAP
Description: as §2, with “96 well EIA/RIA plates (CorningCostar) were coated with 100 μl titrated amounts of IgG variants (10.000-4.5 ng/ml) diluted in PBS and incubated O/N at 4° C. Remaining” for “Remaining”, “above,” for “above with PBS/T or FcRn binding buffer (67 nM phosphate, 0.1 M NaCl, 0.05% T, pH 6.0),”, “15-20” for “20-30”

[9] = molecular target: T5, biotinylated truncated soluble human FcγRI (human, UniProt P12314 16-292, biotinylated); test: ELISA: IgG coated at 10000-4.5 ng/ml, biotinylated truncated soluble human FcγRI 250 ng/ml pre-complexed with AP-streptavidin, absorbance 405 nm
T5 construct: extracellular domain; Bought; preformed complex with AP-streptavidin
Description: as §2, with “96 well EIA/RIA plates (CorningCostar) were coated with 100 μl titrated amounts of IgG variants (10.000-4.5 ng/ml) diluted in PBS and incubated O/N at 4° C. Remaining” for “Remaining”, “above,” for “above with PBS/T or FcRn binding buffer (67 nM phosphate, 0.1 M NaCl, 0.05% T, pH 6.0),”, “15-20” for “20-30”

[10] = molecular target: T6, biotinylated truncated soluble human FcγRIIIa-F158 (human, UniProt P08637 17-208, biotinylated); test: ELISA: IgG coated at 10000-4.5 ng/ml, biotinylated truncated soluble human FcγRIIIa-F158 250 ng/ml pre-complexed with AP-streptavidin, absorbance 405 nm
T6 construct: extracellular domain; Bought
Description: as §2, with “96 well EIA/RIA plates (CorningCostar) were coated with 100 μl titrated amounts of IgG variants (10.000-4.5 ng/ml) diluted in PBS and incubated O/N at 4° C. Remaining” for “Remaining”, “above,” for “above with PBS/T or FcRn binding buffer (67 nM phosphate, 0.1 M NaCl, 0.05% T, pH 6.0),”, “15-20” for “20-30”

[11] = molecular target: T7, biotinylated truncated soluble human FcγRIIa-R131 (human, UniProt P12318 34-217, biotinylated); test: ELISA: IgG coated at 10000-4.5 ng/ml, biotinylated truncated soluble human FcγRIIa-R131 250 ng/ml pre-complexed with AP-streptavidin, absorbance 405 nm
T7 construct: extracellular domain; Bought
T7 sequence (looked up): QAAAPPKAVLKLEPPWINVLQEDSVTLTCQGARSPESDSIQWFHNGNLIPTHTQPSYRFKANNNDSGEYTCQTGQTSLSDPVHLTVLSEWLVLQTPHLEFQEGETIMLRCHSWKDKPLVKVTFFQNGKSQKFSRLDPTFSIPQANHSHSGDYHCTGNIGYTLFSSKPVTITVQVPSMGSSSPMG
Description: as §2, with “96 well EIA/RIA plates (CorningCostar) were coated with 100 μl titrated amounts of IgG variants (10.000-4.5 ng/ml) diluted in PBS and incubated O/N at 4° C. Remaining” for “Remaining”, “above,” for “above with PBS/T or FcRn binding buffer (67 nM phosphate, 0.1 M NaCl, 0.05% T, pH 6.0),”, “15-20” for “20-30”

[12] = molecular target: T8, biotinylated truncated soluble human FcγRIIa-H131 (human, UniProt P12318 34-217, biotinylated); test: ELISA: IgG coated at 10000-4.5 ng/ml, biotinylated truncated soluble human FcγRIIa-H131 250 ng/ml pre-complexed with AP-streptavidin, absorbance 405 nm
T8 construct: extracellular domain; Bought
T8 sequence (looked up): T7 sequence (looked up) with R134H
Description: as §2, with “96 well EIA/RIA plates (CorningCostar) were coated with 100 μl titrated amounts of IgG variants (10.000-4.5 ng/ml) diluted in PBS and incubated O/N at 4° C. Remaining” for “Remaining”, “above,” for “above with PBS/T or FcRn binding buffer (67 nM phosphate, 0.1 M NaCl, 0.05% T, pH 6.0),”, “15-20” for “20-30”

T3 sequence (P02745 23-245 limits assumed, chain 1 of 3): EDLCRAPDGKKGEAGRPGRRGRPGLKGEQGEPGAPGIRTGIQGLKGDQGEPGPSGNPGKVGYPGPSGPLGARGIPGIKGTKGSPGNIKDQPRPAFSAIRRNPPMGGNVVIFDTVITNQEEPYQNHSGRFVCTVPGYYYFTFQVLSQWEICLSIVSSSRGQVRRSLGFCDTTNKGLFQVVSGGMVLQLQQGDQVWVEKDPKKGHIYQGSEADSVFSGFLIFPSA
T3 sequence (P02746 28-253 limits assumed, chain 2 of 3): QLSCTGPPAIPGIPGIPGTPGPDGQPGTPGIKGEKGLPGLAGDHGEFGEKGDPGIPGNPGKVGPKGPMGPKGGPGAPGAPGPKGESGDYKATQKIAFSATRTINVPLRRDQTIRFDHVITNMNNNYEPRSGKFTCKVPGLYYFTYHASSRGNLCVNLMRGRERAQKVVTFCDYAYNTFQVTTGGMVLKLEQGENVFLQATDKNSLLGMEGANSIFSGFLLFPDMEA
T3 sequence (P02747 29-245 limits assumed, chain 3 of 3): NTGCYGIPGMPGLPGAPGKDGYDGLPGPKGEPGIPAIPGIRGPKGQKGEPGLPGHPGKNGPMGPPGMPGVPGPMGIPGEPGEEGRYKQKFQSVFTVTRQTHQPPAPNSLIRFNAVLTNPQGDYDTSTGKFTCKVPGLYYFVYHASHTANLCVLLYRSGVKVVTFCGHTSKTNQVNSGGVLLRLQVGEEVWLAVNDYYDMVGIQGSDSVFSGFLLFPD
T5 sequence (P12314 16-292): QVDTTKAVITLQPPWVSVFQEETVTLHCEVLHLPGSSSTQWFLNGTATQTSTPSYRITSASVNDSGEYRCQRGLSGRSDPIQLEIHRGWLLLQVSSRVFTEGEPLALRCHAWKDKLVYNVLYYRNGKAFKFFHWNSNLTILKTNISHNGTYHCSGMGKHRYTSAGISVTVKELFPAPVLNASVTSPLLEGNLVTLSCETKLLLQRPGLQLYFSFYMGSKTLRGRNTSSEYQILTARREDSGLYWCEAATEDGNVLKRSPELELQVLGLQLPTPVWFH
T2 sequence (P55899 24-297 limits assumed, chain 1 of 2): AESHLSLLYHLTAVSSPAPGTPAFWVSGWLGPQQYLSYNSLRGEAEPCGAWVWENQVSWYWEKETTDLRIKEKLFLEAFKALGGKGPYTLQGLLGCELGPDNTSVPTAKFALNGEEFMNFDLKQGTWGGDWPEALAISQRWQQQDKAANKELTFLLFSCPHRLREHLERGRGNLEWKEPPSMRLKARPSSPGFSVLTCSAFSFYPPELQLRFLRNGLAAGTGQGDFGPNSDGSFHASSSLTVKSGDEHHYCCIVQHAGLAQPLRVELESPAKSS
T2 sequence (P61769 21-119 limits assumed, chain 2 of 2): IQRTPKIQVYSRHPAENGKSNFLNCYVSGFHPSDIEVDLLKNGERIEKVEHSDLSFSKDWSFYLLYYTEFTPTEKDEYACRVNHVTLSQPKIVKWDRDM

Binder | Ki(NNV009)/Ki(NNV020 var.) (human CD37 [1]) [fold] | average potency of the ADCC response (Example 13) [2] [nM] | efficacy (Emax) relative to NNV024, ADCC FcγRIIIa-158V reporter assay [2] [%] | potency (EC50) relative to rituximab, ADCC FcγRIIIa-158V reporter assay [2] [fold] | EC50 (human CD37 [3]) [nM] | Ki (human CD37 [3]) [nM] | fold affinity relative to NNV009 (human CD37 [4]) [fold] | EC50 (read off the curve) [5] [µg/mL] | EC50 (read off the curve) [6] [µg/mL] | EC50 (read off the curve) [7] [µg/mL] | EC50 (read off the curve) [8] [µg/mL] | EC50 (read off the curve) [9] [µg/mL] | EC50 (read off the curve) [10] [µg/mL] | EC50 (read off the curve) [11] [µg/mL] | EC50 (read off the curve) [12] [µg/mL]
B1 | 4.03 | 3 | 75 | ~7 | 1.24 | 0.571 | 4 to 7 |  |  |  |  |  |  |  | 
B2 |  |  |  |  |  |  |  | ~0.04 | ~1 | ~3 | ~0.7 | ~0.4 | ~0.5 | ~0.8 | ~0.3
